# Measured values as given in US9383360B2, “Compositions and methods relating to lyme disease” (The United States of America, as represented by the …, priority 2012, dated 2016).
# T1: E-cadherin (Homo sapiens, UniProt P12830)
# T1 sequence (P12830 155-882): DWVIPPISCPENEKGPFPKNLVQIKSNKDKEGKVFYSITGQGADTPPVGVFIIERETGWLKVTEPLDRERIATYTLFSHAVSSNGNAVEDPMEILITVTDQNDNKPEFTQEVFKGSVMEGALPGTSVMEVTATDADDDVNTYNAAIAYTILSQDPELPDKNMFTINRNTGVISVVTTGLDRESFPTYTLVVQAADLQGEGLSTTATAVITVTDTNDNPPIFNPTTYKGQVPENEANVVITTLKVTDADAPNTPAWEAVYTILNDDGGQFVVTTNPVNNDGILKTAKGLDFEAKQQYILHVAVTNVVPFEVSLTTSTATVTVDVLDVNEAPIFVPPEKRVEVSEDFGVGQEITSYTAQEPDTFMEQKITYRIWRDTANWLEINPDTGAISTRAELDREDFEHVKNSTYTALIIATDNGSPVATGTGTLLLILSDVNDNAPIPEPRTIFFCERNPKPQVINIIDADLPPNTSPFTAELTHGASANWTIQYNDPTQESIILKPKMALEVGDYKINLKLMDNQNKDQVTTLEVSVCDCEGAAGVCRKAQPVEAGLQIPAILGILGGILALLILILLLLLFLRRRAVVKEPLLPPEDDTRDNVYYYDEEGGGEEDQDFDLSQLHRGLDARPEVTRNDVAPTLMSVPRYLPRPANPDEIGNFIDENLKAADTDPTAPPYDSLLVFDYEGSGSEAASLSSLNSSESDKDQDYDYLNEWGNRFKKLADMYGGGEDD
# Molecular target: T1, E-cadherin
# Experiment: BbHtrA proteolysis assay, E-cadherin substrate
# Type: biochemical
# Settings: SDS-PAGE, FIG. 5
# Method: For proteolysis assays described in Examples herein, purified protein substrates (200-600 nM) and proteases (100-150 nM) were diluted in assay buffer (50 mM HEPES, pH 7.4, 5 mM CaCl2) and incubated overnight at 37° C. Samples were boiled for 4 minutes to inactivate the proteases. Proteoglycans were deglycosylated by overnight incubation at 37° C. with 0.01 U chondroitinase ABC (Seikagaku). Reactions were stopped by the addition of SDS/PAGE sample buffer, boiled for 4 minutes, and electrophoresed on pre-cast Tris-glycine gels (BioRad). Reaction products were visualized by silver staining.
# Purified proteins were incubated with BbHtrA or BbHtrA^S226A as described herein. HtrA (also known as DegP) proteases belong to the family of serine proteases which contain a highly reactive serine residue in their active site. This serine (Ser210 in DegP) is part of the canonical His-Ser-Asp catalytic triad and mutation of the catalytic serine abolishes proteolytic activity (Skorko-Glonek et al., 1995). In BbHtrA, residues His119, Ser226 and Asp149 form the catalytic triad and mutation of serine 226 to alanine abolished proteolytic activity as expected (FIG. 5).
# Reaction products were separated by SDS-PAGE and silver stained. Native collagen II and recombinant tenascin C were not degraded by BbHtrA indicating selectivity for proteoglycans, E-cadherin and fibronectin. […]
molecule,measurement,value
"BbHtrA: Recombinant wild type B. burgdorferi HtrA serine protease, mature protein amino acids 38-474, expressed in E. coli (SEQ ID NO:1, 9) (protein, listed as Borrelia burgdorferi) EEKDNTVRALQDSFREVSKKILPSSVEVHATGVIKQSFPIPFFFFDMPEFDSERKSNWAGSGVIIGRDSQKKSLFYVVTNSHVVDKATELEVVSYDKKKHKAKLIGKDEKKDIALISFESDDATIKVADLGDSDKLEIGDWVMAVGSPFQFSFTVTAGIVSGLQRSANPNLQSRNLFIQTDAAINRGNSGGPLVNIKGEVIGINAWIASNSGGNIGLGFAIPVNNIKSTVDFFLKGKKIESAWLGISFYPLKTRDSEVLKSLGVESNDVSAAIIASLYPGSPAVKSGLRAGDIIMKVNGVSMSVFQDVTSYISDFYAGEKVNVEILRGNVKKNIEIVLAVRPKDKELSSSKMLPGFVVYPLVEDIKAQLNLRNWIKGVVVDYIDKNLASNIKMKSGDVILSVNSKSVSNLREFYDALEVGKNTYKILRGNDSFKITF",Degradation of E-cadherin,degrades
